Here are results for 1 molecule from paper PMC4236683 (2014).

The target in test [1] is T1, PlexinA2 (Mus musculus, UniProt P70207).
T1 chain: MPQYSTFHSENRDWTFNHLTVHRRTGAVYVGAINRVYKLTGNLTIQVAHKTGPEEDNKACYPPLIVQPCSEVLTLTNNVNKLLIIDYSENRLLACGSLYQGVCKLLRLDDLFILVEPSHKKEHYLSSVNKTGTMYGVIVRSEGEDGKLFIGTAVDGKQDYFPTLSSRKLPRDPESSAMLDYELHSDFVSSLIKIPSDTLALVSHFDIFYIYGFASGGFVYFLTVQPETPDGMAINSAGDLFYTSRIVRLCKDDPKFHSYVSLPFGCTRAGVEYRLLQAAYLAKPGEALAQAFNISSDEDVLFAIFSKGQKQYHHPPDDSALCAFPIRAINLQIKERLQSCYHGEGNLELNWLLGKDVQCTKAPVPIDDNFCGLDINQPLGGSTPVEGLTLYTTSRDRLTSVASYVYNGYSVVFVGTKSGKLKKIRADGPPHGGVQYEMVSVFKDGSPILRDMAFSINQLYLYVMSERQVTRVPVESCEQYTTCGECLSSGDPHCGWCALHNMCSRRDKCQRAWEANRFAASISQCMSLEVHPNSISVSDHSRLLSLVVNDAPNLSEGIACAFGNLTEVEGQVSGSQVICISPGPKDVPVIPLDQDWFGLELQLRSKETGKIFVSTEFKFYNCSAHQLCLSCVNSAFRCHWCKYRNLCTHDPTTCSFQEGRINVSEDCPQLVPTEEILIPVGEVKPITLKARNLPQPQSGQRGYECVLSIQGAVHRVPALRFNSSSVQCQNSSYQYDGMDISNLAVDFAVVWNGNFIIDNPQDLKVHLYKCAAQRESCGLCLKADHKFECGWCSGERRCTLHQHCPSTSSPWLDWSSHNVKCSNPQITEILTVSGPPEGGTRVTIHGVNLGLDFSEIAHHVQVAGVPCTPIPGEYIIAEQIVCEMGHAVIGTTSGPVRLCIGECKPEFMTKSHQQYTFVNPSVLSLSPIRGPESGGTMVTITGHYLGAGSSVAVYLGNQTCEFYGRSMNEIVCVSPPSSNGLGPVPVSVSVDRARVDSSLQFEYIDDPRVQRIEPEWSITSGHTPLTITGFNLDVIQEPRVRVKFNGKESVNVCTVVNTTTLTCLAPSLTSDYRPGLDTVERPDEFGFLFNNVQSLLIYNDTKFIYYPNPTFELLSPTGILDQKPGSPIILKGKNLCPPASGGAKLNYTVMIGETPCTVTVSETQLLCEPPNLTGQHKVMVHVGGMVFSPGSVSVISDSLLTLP
Put plainly: saturation binding.

Test [2] has as its target PlexinA1 (Mus musculus, UniProt P70206). Put plainly: saturation binding.

Chain of PlexinA1 (P70206 28-1242): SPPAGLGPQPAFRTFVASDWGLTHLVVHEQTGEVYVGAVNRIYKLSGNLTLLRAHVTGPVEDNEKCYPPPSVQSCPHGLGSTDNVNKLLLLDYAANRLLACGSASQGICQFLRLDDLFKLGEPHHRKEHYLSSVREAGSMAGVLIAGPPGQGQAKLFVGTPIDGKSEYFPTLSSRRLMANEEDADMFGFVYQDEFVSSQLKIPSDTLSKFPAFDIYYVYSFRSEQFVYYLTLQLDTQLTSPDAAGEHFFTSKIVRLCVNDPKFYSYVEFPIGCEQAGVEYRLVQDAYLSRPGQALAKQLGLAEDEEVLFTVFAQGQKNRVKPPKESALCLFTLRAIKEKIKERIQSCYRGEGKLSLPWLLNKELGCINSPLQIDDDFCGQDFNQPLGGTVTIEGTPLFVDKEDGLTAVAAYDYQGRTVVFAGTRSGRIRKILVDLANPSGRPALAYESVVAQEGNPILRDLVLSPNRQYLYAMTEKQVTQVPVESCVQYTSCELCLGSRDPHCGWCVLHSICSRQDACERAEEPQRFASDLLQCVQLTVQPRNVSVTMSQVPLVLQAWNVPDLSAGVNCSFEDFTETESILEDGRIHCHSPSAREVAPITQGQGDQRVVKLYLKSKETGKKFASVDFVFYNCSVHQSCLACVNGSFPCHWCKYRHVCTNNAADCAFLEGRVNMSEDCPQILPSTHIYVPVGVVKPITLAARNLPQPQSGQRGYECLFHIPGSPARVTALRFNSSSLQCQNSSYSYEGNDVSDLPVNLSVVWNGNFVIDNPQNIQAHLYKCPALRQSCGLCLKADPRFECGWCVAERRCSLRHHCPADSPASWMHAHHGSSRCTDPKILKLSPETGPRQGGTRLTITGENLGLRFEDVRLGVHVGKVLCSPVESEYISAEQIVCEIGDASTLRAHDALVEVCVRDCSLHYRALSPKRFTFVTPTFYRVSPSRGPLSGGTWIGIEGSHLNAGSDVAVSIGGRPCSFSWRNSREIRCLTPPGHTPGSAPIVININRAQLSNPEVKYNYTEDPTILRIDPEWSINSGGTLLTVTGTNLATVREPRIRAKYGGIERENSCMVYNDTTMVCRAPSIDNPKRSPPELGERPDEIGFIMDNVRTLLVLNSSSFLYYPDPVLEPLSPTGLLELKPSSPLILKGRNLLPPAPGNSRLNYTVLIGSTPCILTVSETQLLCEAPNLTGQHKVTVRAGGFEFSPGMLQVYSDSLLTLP

B1: Sema5A-Fc (protein)
chain: PETQDPAKCQRAEHPVVSYKEIGPWLREFRAENAVDFSRLTFDPGQKELVVGARNYLFRLELEDLSLIQAVEWECDEATKKACYSKGKSKEECQNYIRVLLVGGDRLFTCGTNAFTPVCTIRSLSNLTEIHDQISGMARCPYSPQHNSTALLTASGELYAATAMDFPGRDPAIYRSLGTLPPLRTAQYNSKWLNEPNFVSSYDIGNFTYFFFRENAVEHDCGKTVFSRPARVCKNDIGGRFLLEDTWTTFMKARLNCSRPGEVPFYYNELQGTFFLPELDLIYGIFTTNVNSIASSAVCVFNLSAISQAFNGPFKYQENSRSAWLPYPNPNPNFQCGTMDQGLYVNLTERNLQDAQKFILMHEVVQPVTTVPSFMEDNSRFSHLAVDVVQGRETLVHIIYLGTDYGTIKKVRAPLSQSSGSCLLEEIELFPERRSEPIRSLQILHSQSVLFVGLQEHVAKIPLKRCHFHQTRSACIGAQDPYCGWDAVMKKCTSLEESLSMTQWDQSIPTCPTRNLTVDGSFGPWSPWTPCTHTDGTAVGSCLCRSRSCDRPAPQCGGWQCEGPRMEITNCSRNGGWTPWTSWSPCSTTCGIGFQVRQRSCSNPTPRHGGRVCVGQNREERYCNEHLLCPPHVFWTGWGPWERCTAQCGGGIQARRRTCENGPDCAGSNVEYHPCNTNACPELKKTTPWTPWTPVNISDNGGHYEQRFRYTCKARLPDPNLLEVGRQRIEMRYCSSDGTSGCSTDGLSGDFLRAGRYSAHTVNGAWSAWTSWSQCSRDCSRGIRNRKRVCNNPEPKFGGMPCLGPSLEFQECNILPCPVDGVWSCWSSWSKCSATCGGGHYMRTRSCSNPAPAYGGDICLGLHTEEALCNTQTCPESWSEWSDWSVCDASGTQVRARQCILLFPVGSQCSGNTTESRPCVFDSNFIPEVSVARSSSVEEKRCGEFNMFHM
B1: the Kd in test [1] and in test [2] was around 11.5 nM throughout.
